{
  "source": "paper PMC8191314",
  "about": "(The Journal of Biological Chemistry, 2021)",
  "target": "the molecule itself",
  "assay": "cross-linking",
  "data": [
    {"protein": "MRCKβ in extracts from HeLa cells (enzyme, UniProt Q9Y5S2 1-1711, looked up) MSAKVRLKKLEQLLLDGPWRNESALSVETLLDVLVCLYTECSHSALRRDKYVAEFLEWAKPFTQLVKEMQLHREDFEIIKVIGRGAFGEVAVVKMKNTERIYAMKILNKWEMLKRAETACFREERDVLVNGDCQWITALHYAFQDENHLYLVMDYYVGGDLLTLLSKFEDKLPEDMARFYIGEMVLAIDSIHQLHYVHRDIKPDNVLLDVNGHIRLADFGSCLKMNDDGTVQSSVAVGTPDYISPEILQAMEDGMGKYGPECDWWSLGVCMYEMLYGETPFYAESLVETYGKIMNHEERFQFPSHVTDVSEEAKDLIQRLICSRERRLGQNGIEDFKKHAFFEGLNWENIRNLEAPYIPDVSSPSDTSNFDVDDDVLRNTEILPPGSHTGFSGLHLPFIGFTFTTESCFSDRGSLKSIMQSNTLTKDEDVQRDLEHSLQMEAYERRIRRLEQEKLELSRKLQESTQTVQSLHGSSRALSNSNRDKEIKKLNEEIERLKNKIADSNRLERQLEDTVALRQEREDSTQRLRGLEKQHRVVRQEKEELHKQLVEASERLKSQAKELKDAHQQRKLALQEFSELNERMAELRAQKQKVSRQLRDKEEEMEVATQKVDAMRQEMRRAEKLRKELEAQLDDAVAEASKERKLREHSENFCKQMESELEALKVKQGGRGAGATLEHQQEISKIKSELEKKVLFYEEELVRREASHVLEVKNVKKEVHDSESHQLALQKEILMLKDKLEKSKRERHNEMEEAVGTIKDKYERERAMLFDENKKLTAENEKLCSFVDKLTAQNRQLEDELQDLAAKKESVAHWEAQIAEIIQWVSDEKDARGYLQALASKMTEELEALRSSSLGSRTLDPLWKVRRSQKLDMSARLELQSALEAEIRAKQLVQEELRKVKDANLTLESKLKDSEAKNRELLEEMEILKKKMEEKFRADTGLKLPDFQDSIFEYFNTAPLAHDLTFRTSSASEQETQAPKPEASPSMSVAASEQQEDMARPPQRPSAVPLPTTQALALAGPKPKAHQFSIKSFSSPTQCSHCTSLMVGLIRQGYACEVCSFACHVSCKDGAPQVCPIPPEQSKRPLGVDVQRGIGTAYKGHVKVPKPTGVKKGWQRAYAVVCDCKLFLYDLPEGKSTQPGVIASQVLDLRDDEFSVSSVLASDVIHATRRDIPCIFRVTASLLGAPSKTSSLLILTENENEKRKWVGILEGLQSILHKNRLRNQVVHVPLEAYDSSLPLIKAILTAAIVDADRIAVGLEEGLYVIEVTRDVIVRAADCKKVHQIELAPREKIVILLCGRNHHVHLYPWSSLDGAEGSFDIKLPETKGCQLMATATLKRNSGTCLFVAVKRLILCYEIQRTKPFHRKFNEIVAPGSVQCLAVLRDRLCVGYPSGFCLLSIQGDGQPLNLVNPNDPSLAFLSQQSFDALCAVELESEEYLLCFSHMGLYVDPQGRRARAQELMWPAAPVACSCSPTHVTVYSEYGVDVFDVRTMEWVQTIGLRRIRPLNSEGTLNLLNCEPPRLIYFKSKFSGAVLNVPDTSDNSKKQMLRTRSKRRFVFKVPEEERLQQRREMLRDPELRSKMISNPTNFNHVAHMGPGDGMQVLMDLPLSAVPPSQEERPGPAPTNLARQPPSRNKPYISWPSSGGSEPSVTVPLRSMSDPDQDFDKEPDSDSTKHSTPSNSSNPSGPPSPNSPHRSQLPLEGLEQPACDT", "values": [
      {"measurement": "stoichiometry N", "value": 2}
    ]}
  ]
}
